Measurements as given in US20110009597A1, “RECOMBINANT GANODERMA LUCIDIUM IMMUNOMODULATORY PROTEIN (rLZ-8) AND USES THEREOF” (priority 2008, published 2011).

Key:
WBC = assay: Cyclophosphamide low-leucocyte rat model, WBC; assay type: in vivo, rats; set-up: unit not given here
Method: rLZ-8 preparation of sterile saline. Divide them into 20 μg·kg^−1, 10 μg·kg^−1, 5 μg·kg^−1, 2.5 μg·kg^−1, 1.25 μg·kg^−1, 0.625 μg·kg^−1, 0.31 μg·kg^−1 dose groups.
Genlei™ Scimax™ [Recombinant human granulocyte colony-stimulating factor injection (rhG-CSF)], production lot: 20060403; 75 μg/vial is prepared with sterile normal saline into the preparation of 9.45 μg·ml^−1, 0.1 ml/vial.
Cyclophosphamide (CP), the production lot number 050216; 200 mg/vial is prepared with sterile normal saline into the preparation of 20 mg·ml^−1, 0.1 ml/vial, namely, 49 mg·kg^−1.
Normal control group, protein low-dose group, protein medium-dose group, protein high-dose group, positive control group (Genlei™ Scimax™)
Excluding the normal control group (given same normal saline), each group of rats were given tail vein injection of cyclophosphamide, 20 mg·ml^−1, 0.1 ml/vial, for 3 consecutive days. On 3rd day, rat tail venous blood sampling, sent to Jilin University First Hospital laboratory, cell analyze the number of WBC. After successful modeling, they were given to the above groups respective dose of rLZ-8 and positive drugs (Genlei™ Scimax™) treatment, the normal control group and CP groups were given same normal saline, on the 3rd, 7th and 14th day of the treatment to draw venous blood from rats tail respectively, sent to Jilin University First Hospital testing the numbers of WBC. Compare WBC changes before and after the treatment for analysis of drug efficacy.

spleen = assay: Colony forming unit-spleen and spleen index in radiation model of mice; assay type: in vivo
Method: rLZ-8 preparation of sterile saline. Divide them into 5 ∞g·kg^−1, 2.5 μg·kg^−1, 1.25 μg·kg^−1, 0.62 μg·kg^−1 dose groups. 0.2 ml/vial.
Genlei™ Scimax™ [Recombinant human granulocyte colony-stimulating factor injection (rhG-CSF)], production lot: 20060403; 150m/vial is prepared with sterile normal saline into the preparation of 3.2 μg·kg^−1, 0.2 ml/vial.
The mice were irradiated by 7.5 Gy γ-ray (180 mV, 15 mA) and then divided into seven groups (n=10): (A) negative control; (B) 5 μg·kg−1 dose; (C) 2.5 μg·kg−1 dose; (D) 1.25 μg·kg−1 dose; (E) 0.62 μg·kg−1 dose; (F) positive control (Genlei™ Scimax™); (G) model group. Together with modeling, mice in each group were administered with Genlei™ Scimax™ and rLZ-8 for 9 days, drew blood from tail, tested the number of WBC, weight spleen, calculated index of spleen.

K562 = assay: PI single stained flow cytometry, apoptosis of K562; assay type: cell-based
Method: Fluorescence microscope, model Leica ASLMD, K562, NB4. rLZ-8 is classified into high, medium and low three-dose groups respectively, now we prepare them with IMDM culture medium containing 2% FCS into the preparation of 2.5 μg·ml^−1, 0.5 μg/ml, 0.1 μg·ml^−1. […] (PI) 50 μg·ml ^−1.
Establish K562 as the normal control group, rLZ-8 low-dose group (0.1 μg·ml^−1), rLZ-8 medium dose group (0.5 μg·ml^−1), rLZ-8 high-dose group, (2.5 μg·ml^−1); set NB4 as the normal control group, rLZ-8 low-dose group (0.1 μg·ml^−1), rLZ-8 medium dose group (0.5 μg·ml^−1), rLZ-8 high-dose group, (2.5 μg·ml^−1).
Mix K562 and NB4 cells into 24-orifice plate respectively, and supply rLZ-8 in different concentrates, 1 ml/orifice, set 3-orifice multipunches for each group. Put them in 37° C., 5% CO2 incubator for 24 h, collect the cells of each concentrate, PBS washes twice and regulates the cell density to 1×10^6/ml, 70% ice ethanol fixation, adjusts to −20° C. and stays overnight. Wash the cells with PBS twice after fixing the cells, add PI (end density 50 μg·ml^−1) for room temperature and lucifuged hatching 10 min, 1000 r·min^−1 centrifuge 5 min, clear supernatant with disposable 400μ. IPBS re-suspension precipitation. And test on computer in 1 h.

B1: rLZ-8: Recombinant Ganoderma Lucidum Immune Regulatory Protein expressed in Pichia pastoris (protein, UniProt P14945 2-111, looked up)
Immunomodulatory protein Ling …: SDTALIFRLAWDVKKLSFDYTPNWGRGNPNNFIDTVTFPKVLTDKAYTYRVAVSGRNLGVKPSYAVESDGSQKVNFLEYNSGYGIADTNTIQVFVVDPDTNNDFIIAQWN
- WBC, 3rdday of medication (WBC; rLZ-8 0.31 μg·kg−1): 1.9 ± 0.17
- WBC, 7thday of medication (WBC; rLZ-8 0.31 μg·kg−1): 13.5 ± 0.13
- WBC, 14thday of medication (WBC; rLZ-8 0.31 μg·kg−1): 11.0 ± 0.31
- WBC, 3rdday of medication (WBC; rLZ-8 0.62 μg·kg−1): 5.2 ± 0.14
- WBC, 7thday of medication (WBC; rLZ-8 0.62 μg·kg−1): 12.8 ± 0.74
- WBC, 14thday of medication (WBC; rLZ-8 0.62 μg·kg−1): 12.1 ± 0.24
- WBC, 3rdday of medication (WBC; rLZ-8 1.25 μg·kg−1): 2.8 ± 0.12
- WBC, 7thday of medication (WBC; rLZ-8 1.25 μg·kg−1): 11.0 ± 0.47
- WBC, 14thday of medication (WBC; rLZ-8 1.25 μg·kg−1): 10.3 ± 0.45
- WBC, 3rdday of medication (WBC; rLZ-8 2.5 μg·kg−1): 1.7 ± 0.18
- WBC, 7thday of medication (WBC; rLZ-8 2.5 μg·kg−1): 12.8 ± 0.11
- WBC, 14thday of medication (WBC; rLZ-8 2.5 μg·kg−1): 10.6 ± 0.29
- WBC, 3rdday of medication (WBC; rLZ-8 5 μg·kg−1): 2.6 ± 0.64
- WBC, 7thday of medication (WBC; rLZ-8 5 μg·kg−1): 17.6 ± 0.23
- WBC, 14thday of medication (WBC; rLZ-8 5 μg·kg−1): 11.2 ± 0.26
- WBC, 3rdday of medication (WBC; rLZ-8 10 μg·kg−1): 1.6 ± 0.71
- WBC, 7thday of medication (WBC; rLZ-8 10 μg·kg−1): 15.8 ± 0.33
- WBC, 14thday of medication (WBC; rLZ-8 10 μg·kg−1): 10.9 ± 0.21
- WBC, 3rdday of medication (WBC; rLZ-8 20 μg·kg−1): 1.6 ± 0.33
- WBC, 7thday of medication (WBC; rLZ-8 20 μg·kg−1): 15.8 ± 0.13
- WBC, 14thday of medication (WBC; rLZ-8 20 μg·kg−1): 9.8 ± 0.19
- colony forming unit-spleen number (spleen; rLZ-8 0.62 μg·kg^−1): 8.9 ± 0.41
- growth rate (spleen; rLZ-8 0.62 μg·kg^−1): 50%
- index (spleen) (spleen; rLZ-8 0.62 μg·kg^−1): 0.50 ± 0.10
- colony forming unit-spleen number (spleen; rLZ-8 1.25 μg·kg^−1): 6.3 ± 0.21
- growth rate (spleen; rLZ-8 1.25 μg·kg^−1): 30%
- index (spleen) (spleen; rLZ-8 1.25 μg·kg^−1): 0.24 ± 0.13
- colony forming unit-spleen number (spleen; rLZ-8 2.50 μg·kg^−1): 14.3 ± 0.03
- growth rate (spleen; rLZ-8 2.50 μg·kg^−1): 69%
- index (spleen) (spleen; rLZ-8 2.50 μg·kg^−1): 0.52 ± 0.12
- colony forming unit-spleen number (spleen; rLZ-8 5 μg·kg^−1): 9.7 ± 0.16
- growth rate (spleen; rLZ-8 5 μg·kg^−1): 54%
- index (spleen) (spleen; rLZ-8 5 μg·kg^−1): 0.22 ± 0.09
- Apoptosis rate (K562; K562, rLZ-8 0.1 μg·ml^−1, 24 h): 16.43%
- Apoptosis rate (K562; K562, rLZ-8 0.5 μg·ml^−1, 24 h): 17.91%
- Apoptosis rate (K562; K562, rLZ-8 2.5 μg·ml^−1, 24 h): 21.57%
